# IntAct's records for PubMed 15716268
# B1: NAD-dependent protein deacetylase sirtuin-1 (Mus musculus), Q923E4 (parent)
# chain: MADEVALALQAAGSPSAAAAMEAASQPADEPLRKRPRRDGPGLGRSPGEPSAAVAPAAAGCEAASAAAPAALWREAAGAAASAEREAPATAVAGDGDNGSGLRREPRAADDFDDDEGEEEDEAAAAAAAAAIGYRDNLLLTDGLLTNGFHSCESDDDDRTSHASSSDWTPRPRIGPYTFVQQHLMIGTDPRTILKDLLPETIPPPELDDMTLWQIVINILSEPPKRKKRKDINTIEDAVKLLQECKKIIVLTGAGVSVSCGIPDFRSRDGIYARLAVDFPDLPDPQAMFDIEYFRKDPRPFFKFAKEIYPGQFQPSLCHKFIALSDKEGKLLRNYTQNIDTLEQVAGIQRILQCHGSFATASCLICKYKVDCEAVRGDIFNQVVPRCPRCPADEPLAIMKPEIVFFGENLPEQFHRAMKYDKDEVDLLIVIGSSLKVRPVALIPSSIPHEVPQILINREPLPHLHFDVELLGDCDVIINELCHRLGGEYAKLCCNPVKLSEITEKPPRPQKELVHLSELPPTPLHISEDSSSPERTVPQDSSVIATLVDQATNNNVNDLEVSESSCVEEKPQEVQTSRNVENINVENPDFKAVGSSTADKNERTSVAETVRKCWPNRLAKEQISKRLEGNQYLFVPPNRYIFHGAEVYSDSEDDVLSSSSCGSNSDSGTCQSPSLEEPLEDESEIEEFYNGLEDDTERPECAGGSGFGADGGDQEVVNEAIATRQELTDVNYPSDKS
# partner: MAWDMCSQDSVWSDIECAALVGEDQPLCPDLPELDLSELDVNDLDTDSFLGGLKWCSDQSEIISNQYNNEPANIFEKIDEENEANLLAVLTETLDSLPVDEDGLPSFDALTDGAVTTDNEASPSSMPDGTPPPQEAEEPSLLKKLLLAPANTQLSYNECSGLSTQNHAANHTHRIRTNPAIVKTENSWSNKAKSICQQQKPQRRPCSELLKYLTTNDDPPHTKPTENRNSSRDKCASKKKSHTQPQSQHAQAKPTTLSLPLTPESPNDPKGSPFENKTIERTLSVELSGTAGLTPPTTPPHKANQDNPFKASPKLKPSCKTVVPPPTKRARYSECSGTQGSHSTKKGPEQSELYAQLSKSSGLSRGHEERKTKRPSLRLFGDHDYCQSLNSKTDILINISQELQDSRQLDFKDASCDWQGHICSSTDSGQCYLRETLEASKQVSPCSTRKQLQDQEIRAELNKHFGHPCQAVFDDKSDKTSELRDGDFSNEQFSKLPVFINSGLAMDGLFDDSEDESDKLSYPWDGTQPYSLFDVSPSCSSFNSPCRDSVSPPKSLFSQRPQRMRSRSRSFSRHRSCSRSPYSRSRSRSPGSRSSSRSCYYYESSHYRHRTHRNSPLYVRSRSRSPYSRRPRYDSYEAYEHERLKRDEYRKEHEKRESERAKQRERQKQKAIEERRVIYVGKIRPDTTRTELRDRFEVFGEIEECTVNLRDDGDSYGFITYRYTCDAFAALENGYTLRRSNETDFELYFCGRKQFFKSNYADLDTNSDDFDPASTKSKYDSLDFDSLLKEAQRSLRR
# Variants of: B1
# Details: with prgc1_mouse Ppargc1a
row,Variant,effect of a mutation on the interaction
1,G261A,decreasing interaction
